Measured values as given in patent US20100273979A1 (Affibody, published 2010).

Target: T1, rat serum albumin (rat, UniProt P02770 25-608)
T1 construct: Control coat in the screening ELISA; also called RSA
Experiment: method not stated (unpublished results); unpublished results; method and construct not stated

T1 sequence (P02770 25-608 limits assumed): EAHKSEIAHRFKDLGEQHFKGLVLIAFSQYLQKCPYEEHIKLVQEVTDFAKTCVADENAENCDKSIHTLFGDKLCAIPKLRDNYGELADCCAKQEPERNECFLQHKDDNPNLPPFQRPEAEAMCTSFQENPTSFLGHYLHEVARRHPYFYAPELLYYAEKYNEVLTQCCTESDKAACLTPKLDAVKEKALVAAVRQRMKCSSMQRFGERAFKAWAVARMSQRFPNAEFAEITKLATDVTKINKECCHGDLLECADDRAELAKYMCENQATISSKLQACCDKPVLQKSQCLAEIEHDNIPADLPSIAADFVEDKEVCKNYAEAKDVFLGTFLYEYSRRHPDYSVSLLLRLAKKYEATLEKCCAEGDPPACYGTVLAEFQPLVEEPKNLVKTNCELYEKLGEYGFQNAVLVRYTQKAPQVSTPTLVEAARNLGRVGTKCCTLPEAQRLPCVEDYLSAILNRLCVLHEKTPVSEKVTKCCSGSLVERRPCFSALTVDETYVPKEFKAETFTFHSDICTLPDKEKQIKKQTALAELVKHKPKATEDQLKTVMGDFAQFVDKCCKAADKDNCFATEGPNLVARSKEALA

In the case of LAEAKVLANRELDKYGVSDYYKNLINNAKTVEGVKALIDEILAALP (other) [ABDwt (construct not stated; unpublished results)], the Kd is reported as 0.07 nM.
